# Laboratory results as given in IntAct's records for PubMed 29039417.
# B1: Protein PTHB1 (Homo sapiens), Q3SYG4 (parent)
# chain: MSLFKARDWWSTILGDKEEFDQGCLCLANVDNSGNGQDKIIVGSFMGYLRIFSPHPAKTGDGAQAEDLLLEVDLRDPVLQVEVGKFVSGTEMLHLAVLHSRKLCVYSVSGTLGNVEHGNQCQMKLMYEHNLQRTACNMTYGSFGGVKGRDLICIQSMDGMLMVFEQESYAFGRFLPGFLLPGPLAYSSRTDSFLTVSSCQQVESYKYQVLAFATDADKRQETEQQKLGSGKRLVVDWTLNIGEQALDICIVSFNQSASSVFVLGERNFFCLKDNGQIRFMKKLDWSPSCFLPYCSVSEGTINTLIGNHNNMLHIYQDVTLKWATQLPHIPVAVRVGCLHDLKGVIVTLSDDGHLQCSYLGTDPSLFQAPNVQSRELNYDELDVEMKELQKIIKDVNKSQGVWPMTEREDDLNVSVVVSPNFDSVSQATDVEVGTDLVPSVTVKVTLQNRVILQKAKLSVYVQPPLELTCDQFTFEFMTPDLTRTVSFSVYLKRSYTPSELEGNAVVSYSRPTDRNPDGIPRVIQCKFRLPLKLICLPGQPSKTASHKITIDTNKSPVSLLSLFPGFASQSDDDQVNVMGFHFLGGARITVLASKTSQRYRIQSEQFEDLWLITNELILRLQEYFEKQGVKDFACSFSGSIPLQEYFELIDHHFELRINGEKLEELLSERAVQFRAIQRRLLARFKDKTPAPLQHLDTLLDGTYKQVIALADAVEENQGNLFQSFTRLKSATHLVILLIALWQKLSADQVAILEAAFLPLQEDTQELGWEETVDAAISHLLKTCLSKSSKEQALNLNSQLNIPKDTSQLKKHITLLCDRLSKGGRLCLSTDAAAPQTMVMPGGCTTIPESDLEERSVEQDSTELFTNHRHLTAETPRPEVSPLQGVSE
# partner: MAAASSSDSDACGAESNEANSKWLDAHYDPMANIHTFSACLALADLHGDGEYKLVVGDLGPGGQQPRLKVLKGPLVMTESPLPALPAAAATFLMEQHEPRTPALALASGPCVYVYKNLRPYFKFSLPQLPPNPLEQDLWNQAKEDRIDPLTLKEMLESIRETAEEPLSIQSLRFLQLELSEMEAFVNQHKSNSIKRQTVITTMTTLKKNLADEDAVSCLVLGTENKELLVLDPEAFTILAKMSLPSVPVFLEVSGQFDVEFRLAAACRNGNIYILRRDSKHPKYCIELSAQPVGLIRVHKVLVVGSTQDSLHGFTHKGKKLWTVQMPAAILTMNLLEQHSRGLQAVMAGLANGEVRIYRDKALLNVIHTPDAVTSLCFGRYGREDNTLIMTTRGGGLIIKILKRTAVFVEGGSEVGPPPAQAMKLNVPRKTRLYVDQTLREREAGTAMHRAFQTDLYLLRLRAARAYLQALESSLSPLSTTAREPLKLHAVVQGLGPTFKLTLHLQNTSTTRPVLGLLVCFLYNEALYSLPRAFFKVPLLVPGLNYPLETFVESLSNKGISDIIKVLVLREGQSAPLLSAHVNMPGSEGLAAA
# B2: Isoform 2 of Bardet-Biedl syndrome 7 protein (Homo sapiens), Q8IWZ6-2 (parent)
# chain: MDLILNRMDYLQVGVTSQKTMKLIPASRHRATQKVVIGDHDGVVMCFGMKKGEAAAVFKTLPGPKIARLELGGVINTPQEKIFIAAASEIRGFTKRGKQFLSFETNLTESIKAMHISGSDLFLSASYIYNHYCDCKDQHYYLSGDKINDVICLPVERLSRITPVLACQDRVLRVLQGSDVMYAVEVPGPPTVLALHNGNGGDSGEDLLFGTSDGKLALIQITTSKPVRKWEIQNEKKRGGILCIDSFDIVGDGVKDLLVGRDDGMVEVYSFDNANEPVLRFDQMLSESVTSIQGGCVGKDSYDEIVVSTYSGWVTGLTTEPIHKESGPGEELKINQEMQNKISSLRNELEHLQYKVLQERENYQQSSQSSKAKSAVPSFGINDKFTLNKDDASYSLILEVQTAIDNVLIQSDVPIDLLDVDKNSAVVSFSSCDSESNDNFLLATYRCQADTTRLELKIRSIEGQYGTLQAYVTPRIQPKTCQVRQYHIKPLSLHQRTHFIDHDRPMNTLTLTGQFSFAEVHSWVVFCLPEVPEKPPAGECVTFYFQNTFLDTQLESTYRKGEGVFKSDNISTISILKDVLSKEATKRKINLNISYEINEVSVKHTLKLIHPKLEYQLLLAKKVQLIDALKELQIHEGNTNFLIPEYHCILEEADHLQEEYKKQPAHLERLYG
# partner: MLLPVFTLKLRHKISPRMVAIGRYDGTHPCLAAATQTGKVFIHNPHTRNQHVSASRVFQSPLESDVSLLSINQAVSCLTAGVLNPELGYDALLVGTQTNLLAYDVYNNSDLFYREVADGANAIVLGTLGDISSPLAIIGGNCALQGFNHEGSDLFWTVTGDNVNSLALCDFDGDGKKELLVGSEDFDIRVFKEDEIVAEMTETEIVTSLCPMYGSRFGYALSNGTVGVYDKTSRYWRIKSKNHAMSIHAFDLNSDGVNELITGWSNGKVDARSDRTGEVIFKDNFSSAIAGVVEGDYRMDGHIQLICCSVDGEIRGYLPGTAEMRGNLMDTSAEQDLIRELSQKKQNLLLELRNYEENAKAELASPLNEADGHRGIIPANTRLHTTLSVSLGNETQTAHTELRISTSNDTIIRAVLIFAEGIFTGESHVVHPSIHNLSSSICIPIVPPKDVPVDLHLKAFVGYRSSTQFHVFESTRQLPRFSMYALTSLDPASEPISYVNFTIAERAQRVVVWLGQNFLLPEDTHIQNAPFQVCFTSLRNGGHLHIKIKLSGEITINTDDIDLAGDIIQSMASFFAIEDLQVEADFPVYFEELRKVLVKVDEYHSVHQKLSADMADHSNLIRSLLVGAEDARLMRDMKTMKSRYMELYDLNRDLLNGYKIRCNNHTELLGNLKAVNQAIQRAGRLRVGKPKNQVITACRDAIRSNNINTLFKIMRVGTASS
# Variants of: B1
# Conditions: with bbs1_human BBS1, Q8NFJ9
row,Variant,effect of a mutation on the interaction
1,K443E,with no effect
2,F563E,with no effect
3,T512A,with no effect
4,S509K,with no effect
5,P530K,with no effect
6,T484E,with no effect
7,G433E,with no effect
8,V522E,with no effect
9,G502K,with no effect
10,I601E,with no effect
11,L609E,with no effect
12,R600A,with no effect
13,F472K,with no effect
14,L491E,with no effect
15,T482P,disrupting interaction strength
16,L559A,with no effect
17,Q453A,with no effect
18,V575E,with no effect
19,L465A,with no effect
20,F606A,with no effect

row,Variant,effect of a mutation on the interaction
1,V506E,with no effect
2,S507A,with no effect
3,L500A,with no effect
4,D650A,with no effect
5,E647A,with no effect
6,E647K,with no effect
7,L616P,disrupting interaction strength
8,V416K,with no effect
9,R619E,with no effect
10,R510K,with no effect
11,R514A,with no effect
12,T445K,with no effect
13,L536A,with no effect
14,L411E,with no effect
15,L529A,with no effect
16,F474K,with no effect
17,K594E,with no effect
18,Y460E,with no effect
19,V450A,with no effect
20,L446E,with no effect

# More lines, now with the values ahead:
row,effect of a mutation on the interaction,Variant
1,with no effect,L882K
2,with no effect,V856K
3,with no effect,L799K
4,with no effect,L757K
5,with no effect,G822E
6,with no effect,R818K
7,with no effect,R818E
8,with no effect,V734A
9,with no effect,Q760A
10,with no effect,P758E
11,with no effect,T845K
12,with no effect,S723K
13,with no effect,T844K
14,disrupting interaction strength,H694Y
15,with no effect,S777K
16,with no effect,Q693E
17,with no effect,V749K
18,with no effect,P689E

row,effect of a mutation on the interaction,Variant
1,with no effect,S886K
2,disrupting interaction strength,I735K
3,with no effect,A775E
4,with no effect,G884E
5,with no effect,L870E
6,with no effect,P881K
7,with no effect,V885A
8,with no effect,R824K
9,with no effect,A750K
10,with no effect,S785K
11,with no effect,L709K
12,with no effect,R678E
13,with no effect,W741A
14,with no effect,C826K
15,with no effect,F653K
16,disrupting interaction strength,Q705M
17,with no effect,L815E

# Variants of: B2
# Conditions: with bbs2_human BBS2, Q9BXC9
row,Variant,effect of a mutation on the interaction
1,L642E,with no effect
2,L642A,with no effect
3,L642K,with no effect
4,I643A,with no effect
5,I643K,with no effect
6,I643E,with no effect
7,E651K,with no effect
8,E651A,with no effect
9,L650K,with no effect
10,L650E,with no effect
11,L650A,with no effect
12,Q633E,with no effect
13,Q633K,with no effect
14,Q633A,with no effect
15,C648A,with no effect
16,C648K,with no effect
17,C648E,with no effect
18,F641E,with no effect
19,F641A,with no effect
20,F641K,with no effect
21,T639E,with no effect
22,T639K,with no effect
23,T639A,with no effect
24,H647A,with no effect
25,H647E,with no effect
26,H647K,with no effect
27,I634K,with no effect

row,Variant,effect of a mutation on the interaction
1,I634A,with no effect
2,I634E,with no effect
3,N638A,with no effect
4,N638K,with no effect
5,N638E,with no effect
6,N640E,with no effect
7,N640K,with no effect
8,N640A,with no effect
9,E645K,with no effect
10,E645A,with no effect
11,H635K,with no effect
12,H635A,with no effect
13,H635E,with no effect
14,E636A,with no effect
15,E636K,with no effect
16,P644A,with no effect
17,P644E,with no effect
18,P644K,with no effect
19,Y646E,with no effect
20,Y646K,with no effect
21,Y646A,with no effect
22,I649A,with no effect
23,I649E,with no effect
24,I649K,with no effect
25,G637A,with no effect
26,G637K,with no effect
27,G637E,with no effect

# Other lines, results leading:
row,effect of a mutation on the interaction,Variant
1,with no effect,E658K
2,with no effect,E658A
3,with no effect,Y671A
4,with no effect,Y671K
5,with no effect,Y671E
6,with no effect,H666A
7,with no effect,H666K
8,with no effect,H666E
9,with no effect,K662E
10,with no effect,K662A
11,with no effect,Q663K
12,with no effect,Q663E
13,with no effect,Q663A
14,with no effect,Q657A
15,with no effect,Q657K
16,with no effect,Q657E
17,with no effect,E652K
18,with no effect,E652A
19,with no effect,L670A
20,with no effect,L670E
21,with no effect,L670K
22,with no effect,R669E
23,with no effect,R669K
24,with no effect,R669A
25,with no effect,D654K
26,with no effect,D654A
27,with no effect,D654E
28,with no effect,P664A

row,effect of a mutation on the interaction,Variant
1,with no effect,P664E
2,with no effect,P664K
3,with no effect,L667E
4,with no effect,L667A
5,with no effect,L667K
6,with no effect,E668K
7,with no effect,E668A
8,with no effect,K661E
9,with no effect,K661A
10,with no effect,E659K
11,with no effect,E659A
12,with no effect,Y660E
13,with no effect,Y660K
14,with no effect,Y660A
15,with no effect,L656K
16,with no effect,L656A
17,with no effect,L656E
18,with no effect,A653E
19,with no effect,A653K
20,with no effect,G672K
21,with no effect,G672A
22,with no effect,G672E
23,with no effect,A665E
24,with no effect,A665K
25,with no effect,H655K
26,with no effect,H655E
27,with no effect,H655A

# Variants of: B2
# Conditions: with bbs2_human BBS2, Q9BXC9
# Remark: another data set of the same source
row,effect of a mutation on the interaction,Variant
1,with no effect,S556R
